Test results as given in patent US20050053918A1, “Method of identifying peptides capable of binding to MHC molecules, peptides identified thereby and their uses” (priority 2001, published 2005).

Each molecule was assayed against soluble HLA-A2 (Homo sapiens, UniProt P04439, D140Y/D185E/D98H/E176V/E277Q/G131W/G231S/I119V/I121R/I166T/I218V/N151K/N90K/P208A/P217A/Q86G/Q94H/R138H/R169H) (assay: Appearance of peptides recovered from soluble HLA-A2 of cancer cell lines (ESI-MS/MS)). Conditions: MCF-7, MDA-231, PC3, UCI-107.
Description: Cell lines were co-transfected with plasmid HLA-A2/Q10^b and with phβ2m, which conferred resistance to the antibiotic G418 or transfected only with the plasmids sHLA-A2, sHLA-B7 and sHLA-Cw4 that contained the antibiotic resistance. Cells were electroporated by use of a Gene Pulser (Bio-Rad) set at […] 960 μF. Transfected cell clones were selected in G418 antibiotic and screened for those secreting sMHC to the growth medium. […] Color was developed with ABTS (Sigma) catalyzed by streptavidin peroxidase (Sigma).
Cultured cells, expressing the soluble MHC were grown to confluency in 150 mm plates. The culture medium was collected and residual cells were removed by centrifugation. […] The antibodies were coupled to NHS-activated agarose (Pharmacia) or to protein A Sepharose (Sigma) with n-methylpipelimidate (Sigma). The columns were washed with 0.5 M NaCl, 20 mM, Tris pH 8. The MHC molecules were eluted from the column with 0.1 M acetic acid at pH 3. Peptides were separated from the MHC complexes by boiling for five minutes in 10% acetic acid followed by ultra-filtration through a 3 kDa Microcon (Amincon).
The MHC bound peptides were resolved by reverse-phase HPLC on a 0.1 ID fused silica capillaries with length of about 30 cm (J&W) slurry packed with POROS 10 R2 (PerSepetive Biosystems). The capillaries were fitted with electrospray needle made from 36-gauge stainless tubing (Small Parts Inc. Miami Lakes, Fla.). A Rheodyne 9125 HPLC injector fitted with a 20 μl loop was used for loading the column. The peptides were resolved by a relatively long (90 minutes) linear gradient of 5 to 50% acetonitrile with 0.1% acetic acid, at a flow rate of about 1 μl/minute. The flow was electrosprayed directly from the HPLC column into an ion trap mass spectrometer (LCQ, Finnigan). The mass spectrometry analysis was done in the positive ion mode, using repetitively a full MS scan usually between 450 to 1500 atomic mass units (amu) followed by collision-induced decomposition (CID) of the dominant ion selected from the previous MS scan. In some cases the full MS was performed with a narrower mass range to reduce the number of detected peptides. The peptides were identified by comparing their MS and CID data to the calculated MS and CID of the proteins in the Genpept databank (www.ncbi.nlm.nih.gov/genpept) using the Sequest software (obtained from Finnigan, San Jose, Calif.). The number of times each peptide was fragmented by CID was usually limited to two by dynamic exclusion, a feature of the Xcalibur control software the LCQ mass spectrometer (Finnigan).

Molecule | appearance of peptide in soluble HLA-A2 from cell lines of different tissue origin
GVYDGEEHSV [from MAGE XP-2 protein (MAGE-B2)] | detected only in the ovarian cancer cells (UCI-107)
NLTISDVSV [from MUC1] | recovered only from MCF-7 grown without estrogen
SLIGHLQTL [from protein tyrosine posphatase] | detected only in the breast cancer cell MDA-231
SLLGGDVVSV [from TSC-22 related protein] | detected at high level in the two-breast cancer cells (MCF-7 and MDA-231), but was not observed in the ovarian (UCI-107) and the prostate (PC3) cancer cells
ALFGALFLA | recovered only from PC3 cells

These molecules were tested on T1, HLA-A2.1 (assay: Stabilization of cell surface HLA-A2.1 by peptide binding on RMA-S-HHD cells (FACS)). Conditions: 100 μM peptide, 2 h 26° C. + 2 h 37° C., FACS with W6/32 mAb.
T1 construct: expressed in transfected cells; host or cells: RMA-S-HHD (murine TAP-2 deficient lymphoma, C57BL/6 origin)
Format: cell-based, human
Description: Synthetic peptides were added to […] RMA-S-HHD cells to a concentration of […] followed by incubation for two hours at 26° C. and two hours at 37° C. […] The HLA-A2.1 peptide derived from gp100 served as a positive control and unloaded RMA-S-HHD cells as a negative control.
RMA-S-HHD cells were washed three times with PBS followed by incubation overnight in FCS-free IMDM medium at 26° C. Synthetic peptides were added to 10^6 cells at a concentration of 100 μM. The cells were incubated for two hours at 26° C. followed by two hours at 37° C. […] (Sigma).
Another approach to ascertain that the identified peptides were indeed MHC bound peptide antigens, their capacity to bind tightly and stabilize cell surface HLA-A2.1 was tested by reconstitution into empty MHC on the surface of RMA-S-HHD cells.

Molecule | binding affinity to MHC by reconstitution and stabilization of empty MHC on the surface of RMA-S-HHD cells
GVYDGEEHSV [from MAGE XP-2 protein (MAGE-B2)] | normal

These molecules were tested on EL4-HHD cells loaded with the synthetic peptides (assay: Cytotoxic T lymphocytes assay after immunization of HHD transgenic mice). Conditions: compared to negative control peptide ALLCAPSLL; effector-to-target ratio 50:1 shown.
Format: in vivo
Description: Cells were loaded separately with individual peptides, washed and injected in four groups: 1-p1028 (SEQ ID NO:13) alone, 2-p1258 (SEQ ID NO:24) alone, 3—pool of peptides: p913 (SEQ ID NO:5), p958 (SEQ ID NO:9), p989 of CD59 (SEQ ID NO:11) and p989 of FLI (SEQ ID NO:12), 4—peptides p1031 (SEQ ID NO:14), p1121 (SEQ ID NO:22) and p1068 (SEQ ID NO:16). Unloaded EL4-HHD or targets cells not loaded with the peptides were used as negative controls. An effector-to-target ratio of 50:1 is shown.
Transgenic mice expressing a single chain HLA-A2.1/Db-β2m which are double knockout for H-2 Db and for β2m (HHD mice) were immunized four times intra-peritoneally at 7-day interval with 2×10^6 irradiated (5,000 rad) RMA-S-HHD-B7.1 cells loaded for two hours at 26° C. followed by two hours at 37° C. with 100 μM of the synthetic peptides. Ten days after the last immunization the spleens were removed from the vaccinated mice. Splenocytes were re-stimulated with 100 μM of synthetic peptides for five days. Viable lymphocytes were separated by lympholyte-M (Cadarlane, Homby, Canada) and resuspended in RPMI-HEPES. Cytotoxic activity was measured as in [26] by admixing the lymphocytes at different ratios with 5×10^3 EL4-HHD cells grown in medium containing ^35S methionine and then loaded with the synthetic peptides.
To further evaluate the affinity of the peptides to the HLA-A2 and to obtain some insight into their immunogenic potential, selected peptides were tested for their ability to induce an immune response in HLA-A2 transgenic mice. It was assumed that only peptides that could be effectively presented and remain tightly bound to the cells would be capable of inducing an immune response in these mice. The same synthetic peptides that were used for the FACS analysis were used for immunization of the HHD transgenic mice, which express the human HLA-A2.1/Db-β2m single chain. To immunize the mice, the HHD culture cells were loaded with the different peptides and then injected to the HHD mice. The immune response in the mice was followed by the appearance of CTLs specific for these peptides. Some of the peptides were indeed capable of inducing an immune response, which both authenticate them as MHC bound peptides and gives an indication about their immunogenic potential.

Molecule | lysis of EL4-HHD cells loaded with the peptides by CTLs of immunized HHD mice
ALSDHHIYL [from aldolase A] | significant lysis
TLWVDPYEV [from BTG2] | significant lysis
GLIEKNIEL [from DNA (cytosine-5-)-methyltransferase] | significant lysis
FLFDGSPTYVL [from fatty acid synthase] | significant lysis

These molecules were tested against T2, sHLA-A2 (human) (assay: sMHC eluate MS, UCI-101). Conditions: not given.
T2 construct: also called sA2; sMHC-A2

Molecule | binding result
GLLGTLVQL (also called p913) | binds
SLWGQPAEA (also called p958) | binds
LLLDVPTAAVQA (also called p1210; p11210) | binds
GLYPGLIWL (also called p1031) | binds
SLLPPTALVGL (also called p1080) | binds
SLSEKTVLL (also called p989 of CD59) | binds

Further lines, results first:

binding result | Molecule
binds | LLDVPTAAV (also called p898)
binds | SLFPGKLEV (also called p989 of FLI)
binds | ALSDHHIYL (also called p1068)
binds | GLIEKNIEL (also called p1028)
binds | FLFDGSPTYVL (also called p1258)
binds | YLLPAIVHI
binds | SLLPPDALVGL (also called p1094)
binds | ILDKKVEKV
binds | LLLDVPTAAV (also called p1011)
